This data set concerns the molecule itself. In words: crystal structure; purified channel in 14 mM HEGA-10, 6 mg/ml; crystallised in 10% glycerol, 90 mM HEPES pH 7, 20% PEG-400, 5% PEG-4000, 2.5% PEG-8000, 10 mM spermidine, 20 °C; space group P4212, one molecule in the asymmetric unit; 2.46 Å.

B1: KirBac3.1 S129R/S205L (natural protein, Magnetospirillum magnetotacticum)
chain: MTGGMKPPARKPRILNSDGSSNITRLGLEKRGWLDDHYHDLLTVSWPVFITLITGLYLVTNALFALAYLACGDVIENARPGSFTDAFFFSVQTMATIGYGKLIPIGPLANTLVTLEALCGMLGLAVAARLIYARFTRPTAGVLFSSRMVISDFEGKPTLMMRLANLRIEQIIEADVHLVLVRSEISQEGMVFRRFHDLTLTRSRLPIFSLSWTVMHPIDHHSPIYGETDETLRNSHSEFLVLFTGHHEAFAQNVHARHAYSCDEIIWGGHFVDVFTTLPDGRRALDLGKFHEIAQ
notes: KirBac3.1, inwardly rectifying potassium (Kir) channel homolog from Magnetospirillum magnetotacticum; the final model contains 283 of 301 residues; The tetramer arises from crystallographic symmetry (one molecule in the asymmetric unit, space group P4212); also called S129R/S205L double mutant; S129R/S205L mutant channel; source: size exclusion column, detergent exchanged to HEGA-10
Turning to B1, the binding result is “binds”.

The values are drawn from paper PMC3879539, “Control of KirBac3.1 Potassium Channel Gating at the Interface between Cytoplasmic Domains*” (The Journal of Biological Chemistry, 2013).
